Source: paper PMC9122904, “Insights into the client protein release mechanism of the ATP-independent chaperone Spy” (Nature Communications, 2022)

B7: carboxymethylated α-lactalbumin (natural protein, bovine, UniProt P00711 20-142, looked up)
chain: EQLTKCEVFRELKDLKGYGGVSLPEWVCTTFHTSGYDTQAIVQNNDSTEYGLFQINNKIWCKDDQNPHSSNICNISCDKFLDDDLTDDIMCVKKILDKVGINYWLAHKALCSEKLDQWLCEKL
modifications: carboxymethylated (residues not stated); biotin (EZ-link NHS-biotin, 1:1 molar ratio of biotin to protein)
notes: α-lactalbumin, carboxymethylated and thereby unfolded; also called unfolded α-LA
B8: Spy_(29-138) (domain or fragment, UniProt P77754 52-161, looked up)
chain: FKDLNLTDAQKQQIREIMKGQRDQMKRPPLEERRAMHDIIASDTFDKVKAEAQIAKMEEQRKANMLAHMETQNKIYNILTPEQKKQFNANFEKRLTERPAAKGKMPATAE
notes: source: E. coli BL21 (DE3), purified (Ni-NTA, cation exchange, SEC); not shown: His6, N-terminal, cleaved; SUMO, N-terminal, cleaved

Key:
Conditions in all cases: both partners purified
Spy wild type = target: T1, Spy wild type (Escherichia coli K-12 substr. MG1655, UniProt P77754 24-161); assay: BLI; Octet RED96; biotinylated client loaded on streptavidin sensors, dipped into Spy or Spy variants (0.25, 0.5, 1, 1.5, 2 uM) in 40 mM HEPES, 150 mM NaCl, pH 7.5; kon from kobs against [Spy], Kd = koff/kon
T1 construct: also called WT; source: E. coli BL21 (DE3), purified (Ni-NTA, cation exchange, SEC); not shown: His6, N-terminal, cleaved; SUMO, N-terminal, cleaved
T1 sequence (looked up): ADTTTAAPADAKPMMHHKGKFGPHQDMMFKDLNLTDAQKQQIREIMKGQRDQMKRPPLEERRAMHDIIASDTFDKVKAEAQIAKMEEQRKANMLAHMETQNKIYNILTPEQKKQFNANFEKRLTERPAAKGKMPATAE

Spy (GGGS)2 = target: T2, Spy (GGGS)2 (Escherichia coli K-12 substr. MG1655, UniProt P77754 24-161, (GGGS)2 linker inserted between D26 and M27); assay: as above
T2 construct: also called Spy variant with a (GGGS)2 linker inserted between D26 and M27; source: E. coli BL21 (DE3), purified (Ni-NTA, cation exchange, SEC); not shown: His6, N-terminal, cleaved; SUMO, N-terminal, cleaved
T2 sequence (looked up): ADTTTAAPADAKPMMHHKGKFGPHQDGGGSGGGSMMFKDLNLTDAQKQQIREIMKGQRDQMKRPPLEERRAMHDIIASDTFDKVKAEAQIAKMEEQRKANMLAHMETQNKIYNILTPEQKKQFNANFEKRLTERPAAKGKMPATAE

Spy_(29-124) [1] = target: T3, Spy_(29-124) (Escherichia coli K-12 substr. MG1655, UniProt P77754 52-147); assay: NMR titration; 0.1 mM [15N]-Spy29-124 titrated with unlabeled peptide at Spy29-124:peptide 1:2 to 1:40; 1H-15N HSQC, 40 mM HEPES-NaOH, 150 mM NaCl, pH 7.5, 25 °C; global one-site fit of the CSPs of M64, H65, D66, I67, A69, K113, N116, A117, K121; saturation not reached, Kd only an estimate
T3 construct: [15N]-labeled in the NMR titrations; also called termini-free Spy; source: E. coli BL21 (DE3), purified (Ni-NTA, cation exchange, SEC); not shown: His6, N-terminal, cleaved; SUMO, N-terminal, cleaved
T3 sequence (looked up): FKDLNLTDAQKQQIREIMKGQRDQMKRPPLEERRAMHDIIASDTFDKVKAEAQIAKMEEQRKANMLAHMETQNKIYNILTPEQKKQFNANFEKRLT

Spy_(29-124) [2] = target: T4, Spy_(29-124) (UniProt P77754 52-147); assay: NMR titration; 0.1 mM [15N]-Spy_(29-124) with unlabeled peptide at molar ratios 1:2 to 1:40; 2D 1H-15N HSQC; 40 mM HEPES-NaOH, 150 mM NaCl, pH 7.5, 25 °C; one-site binding model
T4 construct: structured region of Spy, both disordered termini deleted; residue n is n+23 in P77754; Isotope-labelled ([15N], [13C,15N] or [2H,13C,15N]) in the NMR experiments; source: E. coli BL21 (DE3), purified (Ni-NTA, cation exchange, SEC); not shown: His6-SUMO, N-terminal, cleaved
T4 sequence (looked up): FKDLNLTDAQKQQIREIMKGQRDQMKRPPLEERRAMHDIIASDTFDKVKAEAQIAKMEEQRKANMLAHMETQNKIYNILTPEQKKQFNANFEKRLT

Im7 H40W L53A I54A = target: T5, Im7 H40W L53A I54A (UniProt Q03708 1-87, H40W | L53A | I54A, biotin (EZ-link NHS-biotin, 1:1 molar ratio of biotin to protein)); assay: BLI; Octet RED96; biotinylated client loaded on streptavidin sensors; Spy or Spy variants at 0.25, 0.5, 1, 1.5 and 2 μM in 40 mM HEPES, 150 mM NaCl, pH 7.5; Kd = koff/kon
T5 construct: Im7 (colicin E7 immunity protein), partially folded mutant; also called Im7AAW; source: purified by a similar procedure to Spy
T5 sequence: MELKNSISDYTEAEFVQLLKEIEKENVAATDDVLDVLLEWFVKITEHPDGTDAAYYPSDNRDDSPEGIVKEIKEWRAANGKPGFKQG

[3] = target: T6, Spy wild type (Spy_(1-138)) (UniProt P77754 24-161); assay: BLI; Octet RED96; client biotinylated and loaded on streptavidin sensors; Spy or Spy variant in solution at 0.25, 0.5, 1, 1.5 and 2 μM; 40 mM HEPES, 150 mM NaCl, pH 7.5; Kd calculated as koff/kon
T6 construct: Spy, ATP-independent periplasmic chaperone; also called WT; wt; source: E. coli BL21 (DE3), purified (Ni-NTA, cation exchange, SEC); not shown: His6, N-terminal, cleaved; SUMO, N-terminal, cleaved
T6 sequence (looked up): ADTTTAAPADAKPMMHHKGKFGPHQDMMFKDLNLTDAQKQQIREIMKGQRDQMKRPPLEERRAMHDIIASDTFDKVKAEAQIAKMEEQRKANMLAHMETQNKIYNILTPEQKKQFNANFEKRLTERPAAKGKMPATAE

[4] = target: T6, Spy wild type (Spy_(1-138)); assay: as above; remark: listed apart in the source
[5] = target: T6, Spy wild type (Spy_(1-138)); assay: as above; remark: listed apart in the source
[6] = target: B7; assay: as above
[7] = target: B7; assay: as above; remark: listed apart in the source
[8] = target: B7; assay: as above; remark: listed apart in the source
Spy_(29-138) [9] = target: B8; assay: as above
Spy_(29-138) [10] = target: B8; assay: as above; remark: listed apart in the source
Spy_(29-138) [11] = target: B8; assay: as above; remark: listed apart in the source

B1: Im7 H40W L53A I54A (natural protein)
chain: MELKNSISDYTEAEFVQLLKEIEKENVAATDDVLDVLLEWFVKITEHPDGTDAAYYPSDNRDDSPEGIVKEIKEWRAANGKPGFKQG
modifications: biotin (EZ-link NHS-biotin, 1:1 molar ratio of biotin to protein)
notes: Im7, colicin E7 immunity protein (gene ceiE7), partially folded mutant H40W L53A I54A; The methods say only that Im7 variants were purified by a similar procedure to Spy (His6-SUMO tag removed); also called Im7AAW; biotin-labeled Im7AAW; source: purified by a similar procedure to Spy
Kd (Spy wild type): 0.64 µM
koff (Spy wild type): 0.178 s⁻¹
kon (Spy wild type): 276000 M⁻¹ s⁻¹
Kd (Spy (GGGS)2): 0.53 µM
koff (Spy (GGGS)2): 0.123 s⁻¹
kon (Spy (GGGS)2): 234000 M⁻¹ s⁻¹

B2: Nt-pep (peptide)
peptide: ADTTTAAPADAKPMMHHKGKFGPHQDMM
notes: Unlabeled peptide; also called Nt-pep WT; peptide corresponding to Spy residues 1-28
Kd (Spy_(29-124) [1]): 4740 ± 160 µM

B3: Nt-pep D26K (peptide, UniProt P77754 24-51, looked up)
peptide: ADTTTAAPADAKPMMHHKGKFGPHQKMM
notes: Spy of E. coli, residues 1-28 with D26K
Kd (Spy_(29-124) [1]): 6330 ± 250 µM

B4: Nt-pep D26R (peptide, UniProt P77754 24-51, looked up)
peptide: ADTTTAAPADAKPMMHHKGKFGPHQRMM
notes: Spy of E. coli, residues 1-28 with D26R
Kd (Spy_(29-124) [1]): 7040 ± 280 µM

B5: Nt-pep (peptide, UniProt P77754 24-51, looked up)
peptide: ADTTTAAPADAKPMMHHKGKFGPHQDMM
notes: disordered N terminus of Spy as a free peptide; residue n is n+23 in P77754; also called peptide corresponding to Spy residues 1-28
Kd (Spy_(29-124) [2]): 4700 µM

B6: Spy_(21-130) (domain or fragment, UniProt P77754 44-153, looked up)
chain: FGPHQDMMFKDLNLTDAQKQQIREIMKGQRDQMKRPPLEERRAMHDIIASDTFDKVKAEAQIAKMEEQRKANMLAHMETQNKIYNILTPEQKKQFNANFEKRLTERPAAK
notes: previously characterized truncation mutant of Spy; residue n is n+23 in P77754; source: E. coli BL21 (DE3), purified (Ni-NTA, cation exchange, SEC); not shown: His6-SUMO, N-terminal, cleaved
fold increase in koff (against Spy wild type) (Im7 H40W L53A I54A): ~2 fold

B7
Kd [3]: 3.36 µM
koff [4]: 0.726 s⁻¹
kon [5]: 216000 M⁻¹ s⁻¹

B8
Kd [6]: 0.4 µM
koff [7]: 0.0584 s⁻¹
kon [8]: 145000 M⁻¹ s⁻¹

B9: Im7 L18A L19A L37A (natural protein)
chain: MELKNSISDYTEAEFVQAAKEIEKENVAATDDVLDVALEHFVKITEHPDGTDLIYYPSDNRDDSPEGIVKEIKEWRAANGKPGFKQG
modifications: biotin (EZ-link NHS-biotin, 1:1 molar ratio of biotin to protein)
notes: Im7 (colicin E7 immunity protein) with L18A L19A L37A; also called Im7A3; unfolded client; source: purified by a similar procedure to Spy
Kd [3]: 0.67 µM
Kd (Spy_(29-138) [9]): 0.34 µM
koff [4]: 0.199 s⁻¹
koff (Spy_(29-138) [10]): 0.087 s⁻¹
kon [5]: 299000 M⁻¹ s⁻¹
kon (Spy_(29-138) [11]): 254000 M⁻¹ s⁻¹

B10: Im7 wild type (natural protein)
chain: MELKNSISDYTEAEFVQLLKEIEKENVAATDDVLDVLLEHFVKITEHPDGTDLIYYPSDNRDDSPEGIVKEIKEWRAANGKPGFKQG
modifications: biotin (EZ-link NHS-biotin, 1:1 molar ratio of biotin to protein)
notes: Im7 (colicin E7 immunity protein), wild type; also called Im7 WT; Im7WT; source: purified by a similar procedure to Spy
Kd [3]: 0.47 µM
Kd (Spy_(29-138) [9]): 0.27 µM
koff [4]: 0.114 s⁻¹
koff (Spy_(29-138) [10]): 0.048 s⁻¹
kon [5]: 244000 M⁻¹ s⁻¹
kon (Spy_(29-138) [11]): 178000 M⁻¹ s⁻¹
